In patent publication US8394929B2, “Nogo receptor-mediated blockade of axonal growth” (Yale University, priority 2000, dated 2013):

Tests used:
[1] = system: Sema3A-induced growth cone collapse; assay: Sema3A-induced growth cone collapse in chick DRG cultures; type: cell-based
From the text: The Nogo-66 receptor protein is necessary for Nogo-66 action and not simply a binding site with a function unrelated to inhibition of axonal outgrowth. A first prediction is that phosphoinositol specific-Phospholipase C (PI-PLC) treatment to remove glycophosphatidylinositol (GPI)-linked proteins from the neuronal surface will render neurons insensitive to Nogo-66. This prediction holds true for chick E13 dorsal root ganglion neurons; PI-PLC treatment abolishes both AP-Nogo binding and GST-Nogo-66-induced growth cone collapse (FIG. 10a-c). As a control, Sema3A responses in the parallel cultures are not altered by PI-PLC treatment.
For further testing, a synthetic peptide containing amino acid residues #1055-1094 of hNgR, acetylated at the […] was used [hereinafter “Peptide 140”]. […] Antagonist of Nogo-66 inhibitory activity may act by competing for, and thereby blocking NgR binding sites. To determine the antagonistic activity of Peptide 140, the above synthetic form of the peptide was added to E12 chick DRG explant cultures approximately 10 min before application of various concentrations of GST-NogoA (residues #1055-1120), TPA or Sema3A. 30 min later, cultures were fixed and growth cone collapse was assessed following staining with rhodamine-phalloidin.

[2] = biological target: T1, NgR carboxy terminal deletion mutant (NgRΔCT) (Mus musculus, UniProt Q99PI8); assay: Growth cone collapse in E7 retinal ganglion cells infected with NgRΔCT; type: cell-based
T1 construct: expressed in transfected cells; host or cells: chick E7 retinal ganglion cell explants infected with recombinant HSV
T1 sequence (Q99PI8 with tags, fused parts or gaps): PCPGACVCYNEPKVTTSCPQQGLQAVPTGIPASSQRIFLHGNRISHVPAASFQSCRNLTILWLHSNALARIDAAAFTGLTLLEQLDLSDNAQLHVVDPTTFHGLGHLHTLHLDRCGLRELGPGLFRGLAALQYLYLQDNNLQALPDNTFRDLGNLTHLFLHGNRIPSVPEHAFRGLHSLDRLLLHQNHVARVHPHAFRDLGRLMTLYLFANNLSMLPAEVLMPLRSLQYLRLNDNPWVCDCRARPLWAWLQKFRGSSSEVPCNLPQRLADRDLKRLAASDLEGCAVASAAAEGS
Experimental: Because the mouse NgRCT domain was determined to be dispensable for hNogo-A (1055-1120) binding, the ability of NgRΔCT to mediate Nogo-dependent inhibition was examined. HSVNgR constructs transfected into HEK293T cells mediated the expression of mNgR proteins of the predicted molecular weight, as determined by SDS-PAGE and anti-Myc and anti-NgR immunoblotting (FIG. 19A). Day E7 chick retinal ganglion cells (RGCs) were grown for 12 hr, then further incubated for 24 hr with HSVNgR preparations. Explants were fixed with 4% paraformaldehyde with 0.1 M PO4 and 20% sucrose and stained with phalloidin or with anti-myc antibodies. HSVNgR protein expression was detected in axons of infected (RGC) cultures (FIG. 19B).
Growth cone collapse in response to GST-hNogo-A (1055-1120) was investigated in infected RGC cultures. Retinal explants infected with recombinant viral preparations of PlexinA1 (PlexA1), wild-type NgR (wtNgR), NgRL1 chimeric receptor in which the GPI domain has been replaced by the transmembrane region and cytoplasmic tail from the mouse adhesion protein L1 (NgRL1), or NgR carboxy terminal deletion mutant (NgRΔCT) for 12 hr. Following infection, the cells were treated for 30 min with 0, 50, 250, or 500 nM GST-hNogo-A (1055-1120) (GrandPre et al., Nature 403: 439-444, 2000), fixed with 4% paraformaldehyde with 0.1 M PO4 and 20% sucrose, and stained with phalloidin. […]

[3] = system: 3T3 fibroblasts; assay: 3T3 fibroblast spreading; type: cell-based, mouse; details: substrate-bound / coated surfaces
Experimental: (a) is a schematic diagram which summarizes features of the Nogo proteins utilized in this study. (b) is a photograph of NIH-3T3 fibroblasts cultured on surfaces coated with Amino-Nogo, GST-Nogo-66 or no protein and stained for filamentous actin (scale bar, 40 μm). (c) is a photograph of chick E12 dorsal root ganglions cultured on surfaces coated with Amino-Nogo, GST-Nogo-66 or no protein (substrate-bound) or with 100 nM Nogo protein (soluble) (scale bar, 40 μm). (d) is a photograph of a gel and an immunoblot where purified Amino-Nogo-Myc-His protein was subjected to SDS-PAGE and stained with Commassie Brilliant Blue (CBB) or immunoblotted with anti-Myc antibodies (Myc) (molecular weight markers of 200, 116, 97, 65 & 45 kDa are at left). (e) is a graph displaying experimental data where the percentage of 3T3 fibroblasts with an area greater than 1200 μm^2 (spread) was measured from experiments as in (b) on Nogo-coated surfaces (black) or with soluble 100 nM Nogo preparations (blue) (AM, Amino-Nogo; AM+Myc, Amino-Nogo preincubated with anti-Myc antibody; AM+Myc+Mo, AM+Myc preincubated with anti-mouse IgG antibody; Myc+Mo, anti-Myc antibody plus anti-murine IgG antibody). (f) is a graph displaying experimental data where the percentage of spread COS-7 cells was determined after culture on Nogo-coated surfaces or with soluble 100 nM Nogo preparations. (g) is a graph displaying experimental data where the effects of purified preparations of GST-Nogo-66 or Amino-Nogo on growth cone morphology was assessed in E12 dorsal root ganglion cultures at the indicated concentrations after thirty minutes. […] (h) is a graph displaying experimental data where the neurite outgrowth per cell in […] dorsal root ganglion cultures was quantitated from experiments as in (c) on Nogo-coated surfaces or with soluble 100 nM Nogo preparations. (i) is a graph displaying experimental data where the effects of Nogo preparations on neurite outgrowth in cerebellar granule neurons was measured.
Assays of Nogo-A function have included growth cone collapse, neurite outgrowth, and fibroblast spreading with substrate-bound and soluble protein preparations (Caroni & Schwab, (1988) J. Cell Biol. 106, 1281-1288; GrandPré et al., (2000) Nature 403, 439-444; Chen et al., (2000) Nature 403, 434-439; Prinjha et al., (2000) Nature 403, 483-484). […] Since NI250 preparations and full length Nogo-A are non-permissive for 3T3 spreading, it was necessary to consider whether different domains of Nogo might subserve this in vitro activity. To facilitate a comparison of different Nogo-A domains, the acidic amino terminal 1040 amino acid fragment (Amino-Nogo) was expressed as a Myc-his tagged protein in HEK293T cells (FIG. 1d). The Nogo protein is present in cytosolic fractions. […]

Peptide 140: synthetic peptide of amino acids #1055-1094 of the human NogoA protein, acetylated and amidated at the termini (Ac-RIYKGVIQAIQKSDEGHPFRAYLESEVAISEELVQKYSNS-NH2; UniProt Q9NQC3 1055-1094, looked up, fragment)
effect on Sema3A-induced growth cone collapse (in words) [1]: no significant reduction in collapse

B1: GST-Nogo: GST fusion protein of the 66 amino acid lumenal-extracellular fragment of Nogo-A, expressed in E. coli (protein)
chain: RIYKGVIQAIQKSDEGHPFRAYLESEVAISEELVQKYSNSALGHVNCTIKELRRLFLVDDLVDSLK
modifications: also: GST fusion protein
notes: GST fusion protein of the 66 amino acid lumenal-extracellular fragment of Nogo-A, expressed in E. coli
growth cone collapse response (in words) [2]: insensitive | 3T3 fibroblast spreading (in words) [3]: does not inhibit spreading
